How the values were obtained:
Test in all cases: co-IP with anti-FLAG, mass spectrometry; lysate of cells with C-FLAG B3GNT2
ZC3HAV1 (human) = ZC3HAV1 (human) (UniProt Q7Z2W4)
MSN (human) = MSN (human) (UniProt P26038)
SLC27A4 (human) = SLC27A4 (human) (UniProt Q6P1M0)
RPL9 (human) = RPL9 (human) (UniProt P32969)
EPRS (human) = EPRS (human) (UniProt P07814)
RRP12 (human) = RRP12 (human) (UniProt Q5JTH9)
RPL32 (human) = RPL32 (human) (UniProt P62910)
SLC25A5 (human) = SLC25A5 (human) (UniProt P05141)
PJA2 (human) = PJA2 (human) (UniProt O43164)
STAU2 (human) = STAU2 (human) (UniProt Q9NUL3)
SEL1L (human) = SEL1L (human) (UniProt Q9UBV2)
RPS27 (human) = RPS27 (human) (UniProt P42677)
IPO13 (human) = IPO13 (human) (UniProt O94829)
RARS (human) = RARS (human) (UniProt P54136)
ILF3 (human) = ILF3 (human) (UniProt Q12906)
GANAB (human) = GANAB (human) (UniProt Q14697)
CCT7 (human) = CCT7 (human) (UniProt Q99832)
Sequence of CCT7 (human) (Q99832 45-543 limits assumed): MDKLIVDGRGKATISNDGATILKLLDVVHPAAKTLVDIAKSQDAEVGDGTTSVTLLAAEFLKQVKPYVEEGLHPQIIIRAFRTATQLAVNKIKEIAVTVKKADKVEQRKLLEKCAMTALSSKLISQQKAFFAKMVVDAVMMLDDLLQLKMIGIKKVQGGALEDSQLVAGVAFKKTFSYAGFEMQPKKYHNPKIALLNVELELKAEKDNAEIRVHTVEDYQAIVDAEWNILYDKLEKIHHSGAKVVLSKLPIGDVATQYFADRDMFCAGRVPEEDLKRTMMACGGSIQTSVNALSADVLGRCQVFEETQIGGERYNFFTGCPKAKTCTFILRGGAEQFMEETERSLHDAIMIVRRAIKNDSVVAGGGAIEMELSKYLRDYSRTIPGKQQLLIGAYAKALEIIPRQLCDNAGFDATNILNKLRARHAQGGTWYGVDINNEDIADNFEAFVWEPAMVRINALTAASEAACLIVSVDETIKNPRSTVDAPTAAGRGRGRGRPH

SPRR1A (human) = SPRR1A (human) (UniProt P35321)
SDF4 (human) = SDF4 (human) (UniProt Q9BRK5)
Sequence of SDF4 (human) (Q9BRK5 37-362 limits assumed): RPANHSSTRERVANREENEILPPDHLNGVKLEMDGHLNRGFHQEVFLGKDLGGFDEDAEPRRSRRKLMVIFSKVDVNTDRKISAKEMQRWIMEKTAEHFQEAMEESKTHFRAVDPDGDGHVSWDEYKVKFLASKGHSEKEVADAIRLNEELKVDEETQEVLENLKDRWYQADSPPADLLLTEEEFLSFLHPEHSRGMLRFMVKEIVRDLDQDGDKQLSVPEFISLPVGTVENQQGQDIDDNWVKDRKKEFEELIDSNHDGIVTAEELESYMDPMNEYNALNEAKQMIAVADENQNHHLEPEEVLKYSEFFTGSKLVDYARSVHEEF

ARF4 (human) = ARF4 (human) (UniProt P18085)
Sequence of ARF4 (human) (P18085 2-180 limits assumed): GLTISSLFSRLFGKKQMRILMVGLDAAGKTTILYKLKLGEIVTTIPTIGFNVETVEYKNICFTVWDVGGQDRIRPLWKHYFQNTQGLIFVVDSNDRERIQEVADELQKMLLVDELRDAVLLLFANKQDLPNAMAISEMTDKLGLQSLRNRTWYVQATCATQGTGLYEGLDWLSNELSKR

DNAJB11 (human) = DNAJB11 (human) (UniProt Q9UBS4)
RPS4X (human) = RPS4X (human) (UniProt P62701)
GAPDH (human) = GAPDH (human) (UniProt P04406)
Sequence of GAPDH (human) (P04406 2-335 limits assumed): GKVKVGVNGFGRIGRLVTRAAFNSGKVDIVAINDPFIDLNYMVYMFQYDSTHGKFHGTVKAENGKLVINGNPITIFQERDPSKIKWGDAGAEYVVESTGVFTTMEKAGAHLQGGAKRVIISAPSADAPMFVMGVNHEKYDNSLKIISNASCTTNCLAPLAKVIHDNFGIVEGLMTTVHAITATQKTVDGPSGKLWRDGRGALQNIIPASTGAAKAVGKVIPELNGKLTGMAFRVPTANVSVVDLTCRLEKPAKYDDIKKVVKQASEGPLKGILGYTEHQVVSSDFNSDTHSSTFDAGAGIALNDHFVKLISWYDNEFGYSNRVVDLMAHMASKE

GALNT2 (human) = GALNT2 (human) (UniProt Q10471)
MAGT1 (human) = MAGT1 (human) (UniProt Q9H0U3)
Sequence of MAGT1 (human) (Q9H0U3 30-335 limits assumed): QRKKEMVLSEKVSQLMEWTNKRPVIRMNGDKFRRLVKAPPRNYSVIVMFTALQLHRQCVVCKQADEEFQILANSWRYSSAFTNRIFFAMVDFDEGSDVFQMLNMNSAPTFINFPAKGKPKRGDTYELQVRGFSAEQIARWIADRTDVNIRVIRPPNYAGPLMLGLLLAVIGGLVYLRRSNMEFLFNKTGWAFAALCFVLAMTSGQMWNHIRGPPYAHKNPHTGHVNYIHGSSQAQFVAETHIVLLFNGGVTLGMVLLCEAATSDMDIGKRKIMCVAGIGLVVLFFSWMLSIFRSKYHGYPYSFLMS

HSPD1 (human) = HSPD1 (human) (UniProt P10809)
PIGR (human) = PIGR (human) (UniProt P01833)
EIF4A1 (human) = EIF4A1 (human) (UniProt P60842)
Sequence of EIF4A1 (human) (P60842 2-406 limits assumed): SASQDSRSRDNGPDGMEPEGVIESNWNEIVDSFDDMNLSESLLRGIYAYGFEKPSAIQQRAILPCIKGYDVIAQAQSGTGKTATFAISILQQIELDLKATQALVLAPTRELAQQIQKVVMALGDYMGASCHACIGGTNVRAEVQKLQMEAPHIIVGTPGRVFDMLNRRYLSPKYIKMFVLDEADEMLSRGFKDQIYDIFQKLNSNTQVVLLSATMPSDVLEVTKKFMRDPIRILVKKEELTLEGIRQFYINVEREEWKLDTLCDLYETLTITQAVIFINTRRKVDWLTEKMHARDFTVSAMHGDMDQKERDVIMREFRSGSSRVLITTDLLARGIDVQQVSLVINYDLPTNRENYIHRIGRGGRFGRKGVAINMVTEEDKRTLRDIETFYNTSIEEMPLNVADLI

MYO1C (human) = MYO1C (human) (UniProt O00159)
NPM1 (human) = NPM1 (human) (UniProt P06748)
CTHRC1 (human) = CTHRC1 (human) (UniProt Q96CG8)
Sequence of CTHRC1 (human) (Q96CG8 other isoform, or with tags, fused parts or gaps limits assumed): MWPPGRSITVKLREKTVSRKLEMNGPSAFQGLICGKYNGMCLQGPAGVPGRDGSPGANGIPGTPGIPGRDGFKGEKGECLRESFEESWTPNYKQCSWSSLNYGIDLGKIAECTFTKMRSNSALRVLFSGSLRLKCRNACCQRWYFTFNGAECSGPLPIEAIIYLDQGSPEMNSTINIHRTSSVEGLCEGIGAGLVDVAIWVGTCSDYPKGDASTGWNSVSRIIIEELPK

UGGT1 (human) = UGGT1 (human) (UniProt Q9NYU2)
ARHGEF2 (human) = ARHGEF2 (human) (UniProt Q92974)
CCT2 (human) = CCT2 (human) (UniProt P78371)
HADHA (human) = HADHA (human) (UniProt P40939)
RPL26 (human) = RPL26 (human) (UniProt P61254)
TOR1AIP2 (human) = TOR1AIP2 (human) (UniProt Q8NFQ8)

Sequence of RRP12 (human) (Q5JTH9 other isoform, or with tags, fused parts or gaps limits assumed): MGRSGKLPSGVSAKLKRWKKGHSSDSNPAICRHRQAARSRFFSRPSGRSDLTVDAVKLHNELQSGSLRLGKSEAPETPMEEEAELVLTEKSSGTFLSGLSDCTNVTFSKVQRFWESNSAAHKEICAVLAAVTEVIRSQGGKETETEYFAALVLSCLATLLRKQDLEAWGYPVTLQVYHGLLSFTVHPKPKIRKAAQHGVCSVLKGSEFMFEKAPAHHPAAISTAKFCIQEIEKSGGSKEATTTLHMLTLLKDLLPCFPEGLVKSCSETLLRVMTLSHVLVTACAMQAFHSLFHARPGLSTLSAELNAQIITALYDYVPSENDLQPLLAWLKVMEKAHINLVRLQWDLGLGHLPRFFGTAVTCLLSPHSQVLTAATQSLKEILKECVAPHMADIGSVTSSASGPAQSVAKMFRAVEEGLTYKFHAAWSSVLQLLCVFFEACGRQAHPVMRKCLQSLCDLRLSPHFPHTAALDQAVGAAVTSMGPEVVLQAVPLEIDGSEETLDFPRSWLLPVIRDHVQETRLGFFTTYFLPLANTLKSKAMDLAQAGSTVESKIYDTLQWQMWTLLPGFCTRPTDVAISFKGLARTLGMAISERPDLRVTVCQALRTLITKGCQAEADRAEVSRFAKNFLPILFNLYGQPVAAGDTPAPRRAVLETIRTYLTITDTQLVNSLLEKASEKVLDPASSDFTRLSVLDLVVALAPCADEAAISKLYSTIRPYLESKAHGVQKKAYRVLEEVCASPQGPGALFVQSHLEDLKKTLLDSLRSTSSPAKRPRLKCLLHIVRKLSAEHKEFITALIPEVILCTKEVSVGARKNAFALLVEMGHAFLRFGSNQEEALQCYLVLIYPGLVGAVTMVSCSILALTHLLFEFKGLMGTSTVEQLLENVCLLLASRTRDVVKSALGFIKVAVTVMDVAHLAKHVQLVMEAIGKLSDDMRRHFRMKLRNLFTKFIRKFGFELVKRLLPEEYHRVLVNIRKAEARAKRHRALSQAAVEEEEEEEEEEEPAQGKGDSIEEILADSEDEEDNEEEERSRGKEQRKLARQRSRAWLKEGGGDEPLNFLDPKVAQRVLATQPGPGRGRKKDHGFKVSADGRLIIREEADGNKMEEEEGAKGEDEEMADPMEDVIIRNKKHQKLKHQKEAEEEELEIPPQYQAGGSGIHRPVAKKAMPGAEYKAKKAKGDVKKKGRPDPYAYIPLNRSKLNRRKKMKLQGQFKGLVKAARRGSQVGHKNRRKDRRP
Sequence of EPRS (human) (P07814 whole entry): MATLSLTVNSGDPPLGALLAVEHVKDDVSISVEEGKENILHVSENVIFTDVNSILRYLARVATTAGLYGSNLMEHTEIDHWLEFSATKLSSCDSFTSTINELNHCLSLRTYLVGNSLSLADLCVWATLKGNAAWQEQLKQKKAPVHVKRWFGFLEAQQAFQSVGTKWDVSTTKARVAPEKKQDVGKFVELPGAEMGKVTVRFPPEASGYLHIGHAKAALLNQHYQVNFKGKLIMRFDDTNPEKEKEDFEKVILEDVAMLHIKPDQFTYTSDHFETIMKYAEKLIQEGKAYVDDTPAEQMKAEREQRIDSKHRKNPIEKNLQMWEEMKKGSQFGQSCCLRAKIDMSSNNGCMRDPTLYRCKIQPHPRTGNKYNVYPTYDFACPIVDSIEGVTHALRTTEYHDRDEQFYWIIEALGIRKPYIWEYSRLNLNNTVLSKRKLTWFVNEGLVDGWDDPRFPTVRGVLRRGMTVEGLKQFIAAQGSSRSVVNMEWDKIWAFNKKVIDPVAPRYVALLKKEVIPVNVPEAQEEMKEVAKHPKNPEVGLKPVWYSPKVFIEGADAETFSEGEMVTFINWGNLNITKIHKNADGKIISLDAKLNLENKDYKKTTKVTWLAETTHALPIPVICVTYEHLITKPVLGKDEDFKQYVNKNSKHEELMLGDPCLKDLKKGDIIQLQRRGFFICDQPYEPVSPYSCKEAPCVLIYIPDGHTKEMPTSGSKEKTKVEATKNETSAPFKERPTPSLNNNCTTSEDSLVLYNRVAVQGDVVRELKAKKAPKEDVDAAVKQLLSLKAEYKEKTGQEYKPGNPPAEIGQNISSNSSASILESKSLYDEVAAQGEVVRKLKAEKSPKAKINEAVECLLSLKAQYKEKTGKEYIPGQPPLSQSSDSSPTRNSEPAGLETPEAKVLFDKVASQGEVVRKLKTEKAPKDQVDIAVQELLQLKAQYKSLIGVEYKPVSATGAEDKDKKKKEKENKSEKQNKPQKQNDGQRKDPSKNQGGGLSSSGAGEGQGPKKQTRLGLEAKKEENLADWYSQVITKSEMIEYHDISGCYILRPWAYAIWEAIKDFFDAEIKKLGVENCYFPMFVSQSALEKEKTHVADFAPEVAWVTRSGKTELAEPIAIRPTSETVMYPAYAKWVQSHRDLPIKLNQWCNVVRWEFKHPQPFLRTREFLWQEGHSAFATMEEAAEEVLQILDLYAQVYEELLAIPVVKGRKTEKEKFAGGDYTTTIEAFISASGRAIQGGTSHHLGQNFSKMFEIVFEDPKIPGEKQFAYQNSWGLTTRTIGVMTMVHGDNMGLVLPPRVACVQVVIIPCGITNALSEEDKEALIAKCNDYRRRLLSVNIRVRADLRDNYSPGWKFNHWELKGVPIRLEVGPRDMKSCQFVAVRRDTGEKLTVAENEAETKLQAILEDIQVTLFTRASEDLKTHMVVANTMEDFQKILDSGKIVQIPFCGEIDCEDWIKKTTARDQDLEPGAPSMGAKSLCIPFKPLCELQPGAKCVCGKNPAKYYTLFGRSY

## C-terminal FLAG tagged B3GNT2 (from UniProt Q9NY97 1-397) (enzyme)
ZC3HAV1 (human)
  co-IP mass spectrometry count: 4
MSN (human)
  co-IP mass spectrometry count: 4
SLC27A4 (human)
  co-IP mass spectrometry count: 2
RPL9 (human)
  co-IP mass spectrometry count: 7
EPRS (human)
  co-IP mass spectrometry count: 4
RRP12 (human)
  co-IP mass spectrometry count: 2
RPL32 (human)
  co-IP mass spectrometry count: 7
SLC25A5 (human)
  co-IP mass spectrometry count: 30
PJA2 (human)
  co-IP mass spectrometry count: 2
STAU2 (human)
  co-IP mass spectrometry count: 2
SEL1L (human)
  co-IP mass spectrometry count: 5
RPS27 (human)
  co-IP mass spectrometry count: 6
IPO13 (human)
  co-IP mass spectrometry count: 2
RARS (human)
  co-IP mass spectrometry count: 2
ILF3 (human)
  co-IP mass spectrometry count: 5
GANAB (human)
  co-IP mass spectrometry count: 8
CCT7 (human)
  co-IP mass spectrometry count: 2
SPRR1A (human)
  co-IP mass spectrometry count: 3
SDF4 (human)
  co-IP mass spectrometry count: 7
ARF4 (human)
  co-IP mass spectrometry count: 4
DNAJB11 (human)
  co-IP mass spectrometry count: 4
RPS4X (human)
  co-IP mass spectrometry count: 23
GAPDH (human)
  co-IP mass spectrometry count: 16
GALNT2 (human)
  co-IP mass spectrometry count: 2
MAGT1 (human)
  co-IP mass spectrometry count: 2
HSPD1 (human)
  co-IP mass spectrometry count: 6
PIGR (human)
  co-IP mass spectrometry count: 5
EIF4A1 (human)
  co-IP mass spectrometry count: 6
MYO1C (human)
  co-IP mass spectrometry count: 3
NPM1 (human)
  co-IP mass spectrometry count: 8
CTHRC1 (human)
  co-IP mass spectrometry count: 2
UGGT1 (human)
  co-IP mass spectrometry count: 5
ARHGEF2 (human)
  co-IP mass spectrometry count: 2
CCT2 (human)
  co-IP mass spectrometry count: 2
HADHA (human)
  co-IP mass spectrometry count: 2
RPL26 (human)
  co-IP mass spectrometry count: 12
TOR1AIP2 (human)
  co-IP mass spectrometry count: 2

Reference: patent US20240261333A1, “NOVEL TARGETS FOR ENHANCING ANTI-TUMOR IMMUNITY” (THE BROAD INSTITUTE, INC., priority 2021, published 2024)
